Test results taken from US20240082398A1, “METHODS OF PREPARING AND EXPANDING TYPE I INNATE LYMPHOID CELLS AND THERAPEUTIC USES THEREOF” (City of Hope, priority 2021, published 2024).

System: IFN-γ^+ ILC1s
Experiment: In vitro stimulation: IFN-γ production by ILC1s
Type: cell-based, mouse
Settings: neutralizing antibody 10 μg/ml with LSCs, or IL-7 100 ng/ml; 12 h, IL-12 plus IL-15
From the text: ILC1s from human peripheral blood were identified by a surface stain including a live/dead cell viability cell staining kit (Invitrogen) and the following monoclonal antibodies: lineage (FITC-conjugated anti-CD3, anti-CD4, anti-CD8, anti-CD14, anti-CD15, anti-CD16, anti-CD19, anti-CD20, anti-CD33, anti-CD34, anti-CD203c, anti-FceRI), CD56 (FITC, AF700 or BV421 conjugated anti-CD56), CD127 (APC-conjugated anti-CD127), CRTH2 (PE-Cy7-conjugated anti-CRTH2), and c-Kit (PE-conjugated anti-c-Kit). ILC from mice were identified by a surface stain and the following monoclonal antibodies: lineage (PE-Cy7-conjugated anti-CD3 and anti-CD19), NK1.1 (BV510-conjugated anti-NK1.1), NKp46 (BV421, FITC or AF647-conjugated anti-NKp46), CD49b (BUV395 or PE-conjugated anti-CD49b), and CD49a (BV711-conjugated anti-CD49a). Human LSCs were identified by lineage (FITC-conjugate anti-CD2, anti-CD3, anti-CD4, anti-CD8, anti-CD14, anti-CD19, anti-CD20, anti-Mac-1, anti-CD56, and anti-CD235a), CD45 (BV510-conjugated anti-CD45), CD34 (BV510-conjugate anti-CD34), and CD38 (BV605 conjugated anti-CD38). Mouse LSCs were identified by lineage (PE-Cy7 conjugated anti-CD3, anti-CD19, anti-B220, anti-Ly6G/C, anti-Mac-1, anti-CD11b, and anti-Ter119), Sca-1 (PE-CF594 or BV510-conjugate anti-Sca-1), and c-Kit (BV711-conjugated anti-c-Kit). […]

B1: IL-7: recombinant mouse IL-7 (100 ng/ml) (protein)
chain: ECHIKDKEGKAYESVLMISIDELDKMTGTDSNCPNNEPNFFRKHVCDDTKEAAFLNRAARKLKQFLKMNISEEFNVHLLTVSQGTQTLVNCTSKEEKNVKEQKKNDACFLKRLLREIKTCWNKILKGSI
  effect on production of IFN-γ in normal ILC1s: significantly increased
